For one experiment, the target named is T1, α3β1 integrin (human, UniProt P26006 33-1051; P05556 21-798).
T1 construct: whole, on cells; Endogenous receptor in cell lysates
In words: immunoprecipitation of native mSdc4 or mSdc4ΔC2 (FIG. 6D).

The next experiment has as its target T2, HER2 (human, UniProt P04626 23-1255).
T2 construct: whole, on cells; Endogenous protein in cell lysates; also called ErbB2; HER2/Neu
The experiment in a line: co-immunoprecipitation from mammary cell lysates.

The next experiment addresses T3, EGFR (human, UniProt P00533 25-1210).
T3 construct: whole, on cells; Endogenous protein in cell lysates
In words: co-immunoprecipitation from cell lysates.

T1 sequence (P26006 33-1051, chain 1 of 2): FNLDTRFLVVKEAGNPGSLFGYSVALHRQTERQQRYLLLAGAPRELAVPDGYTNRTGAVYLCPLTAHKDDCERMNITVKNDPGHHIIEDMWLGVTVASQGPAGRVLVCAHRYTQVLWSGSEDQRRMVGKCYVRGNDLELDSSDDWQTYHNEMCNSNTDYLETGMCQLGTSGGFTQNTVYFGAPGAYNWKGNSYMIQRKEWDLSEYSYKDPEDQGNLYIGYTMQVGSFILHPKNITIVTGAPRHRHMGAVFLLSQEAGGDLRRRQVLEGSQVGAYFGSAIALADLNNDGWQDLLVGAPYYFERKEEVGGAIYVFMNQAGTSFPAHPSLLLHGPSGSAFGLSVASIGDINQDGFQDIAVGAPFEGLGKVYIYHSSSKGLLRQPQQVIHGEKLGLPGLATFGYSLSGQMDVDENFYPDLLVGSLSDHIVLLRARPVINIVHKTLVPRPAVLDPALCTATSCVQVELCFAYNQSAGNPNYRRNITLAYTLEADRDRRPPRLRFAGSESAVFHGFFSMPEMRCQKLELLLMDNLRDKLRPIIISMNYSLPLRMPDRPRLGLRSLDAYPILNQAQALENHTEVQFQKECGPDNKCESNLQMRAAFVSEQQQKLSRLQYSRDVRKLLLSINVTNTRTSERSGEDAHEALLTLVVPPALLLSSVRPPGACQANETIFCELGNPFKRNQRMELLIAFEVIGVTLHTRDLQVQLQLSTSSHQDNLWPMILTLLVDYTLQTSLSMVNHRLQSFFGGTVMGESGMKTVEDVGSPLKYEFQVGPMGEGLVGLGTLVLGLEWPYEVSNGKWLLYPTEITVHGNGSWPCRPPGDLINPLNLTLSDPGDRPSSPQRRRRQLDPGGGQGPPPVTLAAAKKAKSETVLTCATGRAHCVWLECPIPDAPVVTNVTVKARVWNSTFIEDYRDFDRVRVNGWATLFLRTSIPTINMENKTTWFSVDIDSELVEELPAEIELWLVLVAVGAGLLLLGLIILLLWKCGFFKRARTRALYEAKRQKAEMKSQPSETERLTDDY
T1 sequence (P05556 21-798, chain 2 of 2): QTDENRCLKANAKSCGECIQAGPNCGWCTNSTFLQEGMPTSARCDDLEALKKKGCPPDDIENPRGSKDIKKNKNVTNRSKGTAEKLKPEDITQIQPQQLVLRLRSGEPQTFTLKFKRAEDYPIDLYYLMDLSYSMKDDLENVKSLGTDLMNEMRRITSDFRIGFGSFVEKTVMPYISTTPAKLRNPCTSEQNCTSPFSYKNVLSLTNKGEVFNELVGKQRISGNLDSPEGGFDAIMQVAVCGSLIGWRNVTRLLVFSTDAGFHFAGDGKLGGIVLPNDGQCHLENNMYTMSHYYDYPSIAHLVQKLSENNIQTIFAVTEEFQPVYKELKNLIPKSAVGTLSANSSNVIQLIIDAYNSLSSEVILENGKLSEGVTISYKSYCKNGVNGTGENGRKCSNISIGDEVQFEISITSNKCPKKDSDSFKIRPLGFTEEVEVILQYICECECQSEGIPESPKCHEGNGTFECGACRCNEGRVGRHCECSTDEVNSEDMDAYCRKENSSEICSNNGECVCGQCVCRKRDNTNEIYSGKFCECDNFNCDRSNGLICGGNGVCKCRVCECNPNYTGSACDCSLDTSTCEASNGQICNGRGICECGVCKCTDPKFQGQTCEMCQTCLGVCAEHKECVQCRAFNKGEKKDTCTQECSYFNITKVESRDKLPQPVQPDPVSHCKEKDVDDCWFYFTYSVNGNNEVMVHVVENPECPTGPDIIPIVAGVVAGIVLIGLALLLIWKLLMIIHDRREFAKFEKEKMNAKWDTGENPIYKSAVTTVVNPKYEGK

B1: mSdc4ΔC2 mutant (receptor, mouse, UniProt O35988 24-194, looked up)
chain: ESIRETEVIDPQDLLEGRYFSGALPDDEDAGGSDDFELSGSGDLDDTEEPRPFPEVIEPLVPLDNHIPENAQPGIRVPSEPKELEENEVIPKRAPSDVGDDMSNKVSMSSTAQGSNIFERTEVLAALIVGGVVGILFAVFLILLLVYRMKKKDEGSYDLGKKPIYKKAPTN
notes: whole, on cells; Lacks the last four residues, EFYA; also called mSdc4 C2
As for B1, the binding result in the experiment with α3β1 integrin is listed as “binds”.

B2: human syndecan-4 (receptor, UniProt P31431 19-198, looked up)
chain: ESIRETEVIDPQDLLEGRYFSGALPDDEDVVGPGQESDDFELSGSGDLDDLEDSMIGPEVVHPLVPLDNHIPERAGSGSQVPTEPKKLEENEVIPKRISPVEESEDVSNKVSMSSTVQGSNIFERTEVLAALIVGGIVGILFAVFLILLLMYRMKKKDEGSYDLGKKPIYKKAPTNEFYA
notes: whole, on cells; Endogenous protein, immunoprecipitated as a control; also called Sdc4; human Sdc4
For the molecule B2, the binding result with HER2 is “no binding”.

B3: human syndecan-1 (receptor)
chain: QIVATNLPPEDQDGSGDDSDNFSGSGAGALQDITLSQQTPSTWKDTQLLTAIPTSPEPTGLEATAASTSTLPAGEGPKEGEAVVLPEVEPGLTAREQEATPRPRETTQLPTTHQASTTTATTAQEPATSHPHRDMQPGHHETSTPAGPSQADLHTPHTEDGGPSATERAAEDGASSQLPAAEGSGEQDFTFETSGENTAVVAVEPDRRNQSPVDQGATGASQGLLDRKEVLGGVIAGGLVGLIFAVCLVGFMLYRMKKKDEGSYSLEEPKQANGGAYQKPTKQEEFYA
notes: Endogenous Sdc1 of human cells, immunoprecipitated from cell lysates; also called hSdc1; Sdc1
As for B3, in the experiment with EGFR, the binding result was “no binding”.

These data come from patent publication US20140011746A1 (WISCONSIN ALUMNI RESEARCH FOUNDATION, published 2014).
